The source of these data is paper PMC11413682.

pKd: −log10 of the molar value.

As a reminder, the pKd is the Kd on a negative log10 scale, so that one unit is a factor of ten. Higher therefore signals a small Kd.

CUL2^ZYG11B (residues 490–728) (human), sequence (Q9C0D3 490-728): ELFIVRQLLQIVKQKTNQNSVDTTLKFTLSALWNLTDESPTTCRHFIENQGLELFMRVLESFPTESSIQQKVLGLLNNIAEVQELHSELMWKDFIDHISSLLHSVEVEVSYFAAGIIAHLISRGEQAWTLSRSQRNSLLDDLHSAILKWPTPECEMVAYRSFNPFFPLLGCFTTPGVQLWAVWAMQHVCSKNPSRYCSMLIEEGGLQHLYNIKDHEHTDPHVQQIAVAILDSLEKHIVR

This experiment addresses CUL2^ZYG11B (residues 490–728) (human) (UniProt Q9C0D3). Kind of experiment: ITC; MicroCal iTC200; peptides (0.5–1 mmol/L) in the syringe, CUL2^ZYG11B(490–728) (0.03 mmol/L) in the cell; 18 injections of 2 μL; repeated 3 times. On the technique in general: Isothermal titration calorimetry measures the heat released or taken up as one component is titrated into another.
Regarding SARS-CoV-2 ORF10 N5 peptide G1A, the fold decrease of binding against ORF10 N5 turned out to be 4 fold.

In turn, SARS-CoV-2 ORF10 N5 peptide G1S displayed a fold decrease of binding against ORF10 N5 of 4 fold.

SARS-CoV-2 ORF10 N5 peptide I3A gave a pKd of 5.25.

Regarding SARS-CoV-2 ORF10 N5 peptide I3F, the pKd was 6.06.

SARS-CoV-2 ORF10 N5 peptide N4A: the pKd was 6.23.

SARS-CoV-2 ORF10 N5 peptide Y2A: the pKd was 4.60.

Substance SARS-CoV-2 ORF10 N5 peptide Y2F gave a pKd of 5.33.
